These results are taken from the nanobody polyreactivity screen of Harvey et al. (2022).

The data set can be described thus: yeast display, Sf9 membrane polyspecificity reagent, FACS + sequencing; frameworks hold sequencing errors. The method in brief:
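Nanobodies from a synthetic yeast display library (Saccharomyces cerevisiae BJ5465), induced 36–48 hours with galactose, were stained 1 hour at 4 °C with 10% biotinylated, detergent-solubilized Sf9 membrane reagent, enriched on streptavidin microbeads, then FACS-sorted. Anti-HA (expression) and streptavidin (reagent binding) fluorescence set low and high (top ~1%) gates. Polyreactivity labels come from the gate of origin. Genes were colony-PCR amplified, MiSeq 2 × 250 sequenced and filtered by CDR length.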
With “QVQLVESGGGLVQAGGSLRLSCAASGNTFATYAMGWYRQAPGKERELVAAITWSGGSTYYADSVKGRFTISRDNAKNNVYLQMNSLKPEDTAVYYCAADYLYYAIPAYYWDTGYDYWGQGTQVTVSS”, the “polyreactivity (PSR sort gate)” value is “low polyreactivity”.

Turning to “QVQLVESGGGLVQAGGSLRLSCAASGNTFAVNAMVWSRQAPGKERELVAAISRTGGRTYYADSVKGRFTISRDNAKNTVYLQMNSLKPEDTAVYYCAAEYYYTSQLAKYHYGYEYWGQGTQVTVSS”, the “polyreactivity (PSR sort gate)” value is “high polyreactivity”.

Turning to “QVQLVESGGGLVQAGGSLRLSCAASGNTFAYYAMGWYRQAPGKERELVAAITSTGVRTYYADSVKGRFTISRDNAKNTVYFQMNSLKPEDTAVYYCNAEYWRVWYLHYYYEYDYWGQGTQVTVSS”, the “polyreactivity (PSR sort gate)” value is on record as “high polyreactivity”. The result for “QVQLVESGGGLVQAGGSLRLSCAASGNTFCPYAMGWYRPAPGKERELVARISRSGSSTYYADSVKGRFTISRDNAKNTVYLQMNSLKPEDSAVYYCARGRTIRSSRTVGSWGQGTQVTVSS” reads “high polyreactivity”; that for “QVQLVESGGGLVQAGGSLRLSCAASGNTFFIYAMGWYRPAPGKERELVAAITYSGGGTYYADSVKGRFTISRDNAKNTVYLQMYSLKPDDTAVYYCAADFYTGWSYIYDYWGHGTQVTVSS”, “high polyreactivity”. As to “QVQLVESGGGLVQAGGSLRLSCAASGNTFFPYTMGWYRQAPGKERELVAAITWSGVSTYYADSVKGRFTISRDNAKNTVYLQMNSLKPEDTAVYYCAAGPGYVRYPRSGVWYVTLYDYWGQGTQVTVSS”, the “polyreactivity (PSR sort gate)” value is on record as “high polyreactivity”. Next, “QVQLVESGGGLVQAGGSLRLSCAASGNTFGENAMGWDRQAPRKETELVAAITYGGTTNYADSVKGRFTISRDNAKNTVYLQMNSLKPEDTAVYYCNAKFGISQPGHSGLLKMDYWGQGTQVTVSS”: “low polyreactivity”; “QVQLVESGGGLVQAGGSLRLSCAASGNTFGKYGVGWYRQAPGKEREFVAAITSRGTSTYYADSVKGRFTISRDNEKNTVYLQMNSLKPEDTAVYYCNARPRYKYPRYDYWGQGTQVTVSS”: “high polyreactivity”; “QVQLVESGGGLVQAGGSLRLSCAASGNTFGLYAMGWYRQAPGKERELVATITWSVSTYADSVKGRFTISRDNAKNTVYLQMNSLKPEDTAVYYCAATTGPWYWRYDYWGQGTQVTVSS”: “high polyreactivity”. On to “QVQLVESGGGLVQAGGSLRLSCAASGNTFGPYDMGWYRQAPGKERELVAGITSGGSTYYADSVKGRFTISRDNAKNTVYLQMNSLKPEDTAVYYCAADYYLWVYWYDYWGQGTQVTVSS”, for which the “polyreactivity (PSR sort gate)” value is recorded as “high polyreactivity”. The result for “QVQLVESGGGLVQAGGSLRLSCAASGNTFGRYAMGWSRQAPGKEREFVAAIRWRGATTYYADSVKRRFTISRDNAKNPVDLQMNSMKPEDTAVYYCAAYYWGQGTGFDYWGQGTQVTVSS” reads “high polyreactivity”. Next, “QVQLVESGGGLVQAGGSLRLSCAASGNTFIYYAMGWYRQAPGKERELVAAITWSGGSTYYADSVKGRFTISRDNAKNTVYLQMNSLKPEDTAVYYCAKFTHNYYYWGQGTQVTVSS”: “high polyreactivity”. The result for “QVQLVESGGGLVQAGGSLRLSCAASGNTFKYYAMGWYRQAPGKERELVATISRTAGSTYYADSVKGRFTISRDNAKNTVYLQMNSLKPDDTAVYYCNKDRGHPFKYDYWGQGTQVTVSS” reads “low polyreactivity”; that for “QVQLVESGGGLVQAGGSLRLSCAASGNTFLYYGMGWYRQAPGKERELVAAITQSGGTTYYADSVKGRCTISRDNAKNPVYLQMNSLKPEDTAVYYCAATRYYYYWYVYDDRGDYWGQGTQVTVSS”, “low polyreactivity”. For “QVQLVESGGGLVQAGGSLRLSCAASGNTFPRYVMGWYRQAPGKERELVADITRRGGSTYYADSVKGRFTISRDNAKNTVYLQMNSLKPEDTAVYYCAALYLYGHQFYNDYYYWGQGTQVTVSS”, the “polyreactivity (PSR sort gate)” value was “high polyreactivity”. The result for “QVQLVESGGGLVQAGGSLRLSCAASGNTFPTNVMGWYRQAPGKERELVAAITRSGGTTYYADSVKGRFTISRDNAKNTVYLQMNSLKPEDTAVYYCAAGPTQGWGRGYWGQGTQVTVSS” reads “high polyreactivity”; that for “QVQLVESGGGLVQAGGSLRLSCAASGNTFRIYTMGWYRQSPGKEMELVATITRRGGSTYYADSVKGRFTISRDYAKNTVYLQMKSLKPEDTAVYYCAATTKLPRGHYWNYYWGQGTQVTVSS”, “high polyreactivity”; that for “QVQLVESGGGLVQAGGSLRLSCAASGNTFRIYTMVWYRQAPGKERELVATITRRGGSTYYADSVKGRFTISRDNAMNTVYLQMNSLKPEDTVVYYCAARVRGTGVYGGYNYWGQGTLVTVSS”, “high polyreactivity”. For the sequence “QVQLVESGGGLVQAGGSLRLSCAASGNTFRRYAMGWYRQAPGKEREFVAAISSSGGRTYYADSVKGRFTISRDNAKNTVYVQMNSLKPEDTAVYYCNAVSYWVRGEMDYWGQGTQVTVSS”, the “polyreactivity (PSR sort gate)” value is reported as “high polyreactivity”. Next, “QVQLVESGGGLVQAGGSLRLSCAASGNTFRSYAMGWYRQAPGKERELVAAISSTGNTYYADSVKGRFTISRDNAKNTVYLQMNSLKPEDTAVYYCAASKWRRADYYYWGQGTQVTVSS”: “high polyreactivity”; “QVQLVESGGGLVQAGGSLRLSCAASGNTFSGTTMGWYRQAPGKERELVAAIRFTGGSTTYADSVKGRFTISRDNAKNTVYLQMNRLKPEDTAVYYCNTDWVSFRSIYHEYDYWGQGTQVTVSS”: “low polyreactivity”. Next, “QVQLVESGGGLVQAGGSLRLSCAASGNTFSQYAMGWYRQAPGKERELVATISKSSGSTSYADSVKGRFTISRDNAKNTVYLQMNSLKPEDTAVYYCNADSSDVYHHLGVLFFSTWYDYWGQGTQVTVSS”: “low polyreactivity”. Next, “QVQLVESGGGLVQAGGSLRLSCAASGNTFTWYTMGWYRQAPGKERELVAGITWSGGSTFYADSVKGRFTISRDNAKNTVYLQMNSLKPEDTAVYYCAVSTEVNRYHAKYDYWGQGTQVTVSS”: “low polyreactivity”; “QVQLVESGGGLVQAGGSLRLSCAASGNTFTWYTMGWYRQAPGKERELVAVITSDGSTYYADSVKGRFTISRDNAKNTVYLQMNRLKPEDTAVYYCNALSADWYPEEDYWGQGTQVTVSS”: “low polyreactivity”; “QVQLVESGGGLVQAGGSLRLSCAASGNTFTYYALGWYRQAPGTEREVVASISSGGSTNYADSVKGRFTISRDNAKNTVYLQMNRLKPEDTAVYYCARGWSFSTRRFQHTRYYYWGQGTQVTVSS”: “high polyreactivity”. With “QVQLVESGGGLVQAGGSLRLSCAASGNTFVAYTMGWYRPAPGKERELVAAISWRGGTTYYADSVKGRFTISRDNAKNTVYLQMNSLKPEDTAVYYCAARTSYISHGYVTHGLYYWGQGTQVTVSS”, the “polyreactivity (PSR sort gate)” value is reported as “high polyreactivity”. With “QVQLVESGGGLVQAGGSLRLSCAASGNTFVDYAMGWYRQAPGKERELVAAISDGGSTNYADSVKGRFTISRDNAKNTVYLQMNSLKPEDTAVYYCAKDELYIPGVWPYYEYDYWGQGTQLTVSS”, the “polyreactivity (PSR sort gate)” value is “low polyreactivity”. The result for “QVQLVESGGGLVQAGGSLRLSCAASGNTFVPYAMGWYRQAPGKERELVAAITFSAGRTYYADSVKGRFTISRDNAKNTVYLQMNSLKPEDTAVYYCNVYWYNNYRGYYYWGQGTQVTVSS” reads “high polyreactivity”. Consider “QVQLVESGGGLVQAGGSLRLSCAASGNTFVQNTMGWYRQAPGKERELVAAISSRGGSTYYADSVKGRFTISRDNAKNTVYLQMNSLKPEDTAVYYCAARSKVRRSYDYRGQGTQVTVSS”, for which the “polyreactivity (PSR sort gate)” value is given as “high polyreactivity”.

In the case of “QVQLVESGGGLVQAGGSLRLSCAASGNTFVRNAMGWYRQAPGKERELVAAMSSRGTSTYYADSVKGRFTISRDNAKNTVYLQMNSLKPEDTAVYYCAAYQYPADFKLYYYWGQGTQVTVSS”, the “polyreactivity (PSR sort gate)” value is on record as “high polyreactivity”. The result for “QVQLVESGGGLVQAGGSLRLSCAASGNTFVYYAMGWYRQAPGKERELVAAISSSGGRTYYADSVKGRFTISRDNAKNTVYLQMNSLKPEDTAVYYCAARGPYTTKAYDYWGQGTQVTVSS” reads “high polyreactivity”; that for “QVQLVESGGGLVQAGGSLRLSCAASGNTFWKYAMGWYRQAPGKERELVAAITRGGARTYYADSVKGRFTISRDNAKYSVYLQINSLNPEDTAVYYCAAQYWTEYGSWGQGTEVTVSS”, “low polyreactivity”.

In the case of “QVQLVESGGGLVQAGGSLRLSCAASGNTFWSYTMGWYRQAPGKERELVAAITRSGGSTYYADSVKGRFTISRDHAKNTVYLQMNSLKPEDTAVYYCAADYYSASRFGYWGQGTQVTVSS”, the “polyreactivity (PSR sort gate)” value is reported as “high polyreactivity”. Next, “QVQLVESGGGLVQAGGSLRLSCAASGNTFYGYAMGWYRQAPGKERELVASITLSGDSMYYADSVKGRFTISRDNAKNTVYLQMNSLIPDDTAVYYCNADWYFQYPYDYWGQGTQVSVSS”: “low polyreactivity”. Next, “QVQLVESGGGLVQAGGSLRLSCAASGNTFYGYAMGWYRQAPGKERELVASITLSGDSTYYADSVKGRFTISRDNAKNTVYLQMNSLKPEDTAVYDCAGVYTYPLGYYHYTYDYWGQGTQVTVSS”: “low polyreactivity”. The result for “QVQLVESGGGLVQAGGSLRLSCAASGNTFYGYAMGWYSQAPGQERELVASITLSGDSTYYADSVKGRFTISRDNAKNTVYLQMNTLKPEDTAVYYCAGVYTYPLGYYHYTYDYWGQGTQVTVSS” reads “low polyreactivity”. As for “QVQLVESGGGLVQAGGSLRLSCAASGNTFYGYTMGWYIQAPGKDRELVAAISGRGGSTTYADSVKGRFTISRDNAKNTVYLQMNSLNPEDTAVYYCAATYVYIRTRFYYWGQGTQVTVSS”, the “polyreactivity (PSR sort gate)” value was “high polyreactivity”.

In the case of “QVQLVESGGGLVQAGGSLRLSCAASGNTFYKYAMGWYRQAPGKERELVADISWSGGSTYYADSVKGRFTISRDNAKNTVYLQMNSLKREDTAVYYCNADTPVWDGHAYPVDYWGQGTQVTVSS”, the “polyreactivity (PSR sort gate)” value was “low polyreactivity”. On to “QVQLVESGGGLVQAGGSLRLSCAASGNTFYPHAMGWYRQAPGTERELVAAISSTGGRTYYADSVKGRFTISRDNAKNTVYLQMNSLKPEDTAVYFCNTYACVAGDYWGQGTQVTVSS”, for which the “polyreactivity (PSR sort gate)” value is “high polyreactivity”. Next, “QVQLVESGGGLVQAGGSLRLSCAASGNTFYPYAMGWYRQAPGKERELVAAISFSSGSTYYADSVKGRFTISRDNAKNTVYLQMNSLKPEETAVYYCAAEANGNFAWWEYYYWGQGTQVTVSS”: “high polyreactivity”.
